According to paper PMC10326071:

Target: middle domain of human Paip1 (Paip1M) (human) (UniProt Q9H074)
Test: BLI; […]; 1x PBS pH 7.4, 0.1% surfactant P20, 0.1% BSA, 500 mM NaCl; 25 C; global fit, 1:1 model

middle domain of human Paip1 (Paip1M) (human), sequence (Q9H074 157-375): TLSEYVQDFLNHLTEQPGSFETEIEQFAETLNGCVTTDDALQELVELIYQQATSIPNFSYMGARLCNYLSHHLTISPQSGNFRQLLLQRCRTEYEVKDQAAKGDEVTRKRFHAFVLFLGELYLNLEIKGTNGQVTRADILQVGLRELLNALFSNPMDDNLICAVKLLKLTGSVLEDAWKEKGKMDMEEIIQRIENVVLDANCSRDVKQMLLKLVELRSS

Question: For “SARS-CoV-2 SUD-core-CC (domain or fragment)”, which Kd is on record?
Answer: 7.2 µM
